Test results published in article PMC6721724, “The Intrinsically Disordered C-Terminal Domain Triggers Nucleolar Localization and Function Switch of PARN in Response to DNA Damage” (Cells, 2019).

Target: the molecule itself
Experiment: cross-linking; purified protein cross-linked with 0.03% glutaraldehyde, analysed by SDS-PAGE

B1: full-length PARN, recombinant (enzyme, human, UniProt O95453 1-639, looked up)
chain: MEIIRSNFKSNLHKVYQAIEEADFFAIDGEFSGISDGPSVSALTNGFDTPEERYQKLKKHSMDFLLFQFGLCTFKYDYTDSKYITKSFNFYVFPKPFNRSSPDVKFVCQSSSIDFLASQGFDFNKVFRNGIPYLNQEEERQLREQYDEKRSQANGAGALSYVSPNTSKCPVTIPEDQKKFIDQVVEKIEDLLQSEENKNLDLEPCTGFQRKLIYQTLSWKYPKGIHVETLETEKKERYIVISKVDEEERKRREQQKHAKEQEELNDAVGFSRVIHAIANSGKLVIGHNMLLDVMHTVHQFYCPLPADLSEFKEMTTCVFPRLLDTKLMASTQPFKDIINNTSLAELEKRLKETPFNPPKVESAEGFPSYDTASEQLHEAGYDAYITGLCFISMANYLGSFLSPPKIHVSARSKLIEPFFNKLFLMRVMDIPYLNLEGPDLQPKRDHVLHVTFPKEWKTSDLYQLFSAFGNIQISWIDDTSAFVSLSQPEQVKIAVNTSKYAESYRIQTYAEYMGRKQEEKQIKRKWTEDSWKEADSKRLNPQCIPYTLQNHYYRNNSFTAPSTVGKRNLSPSQEEAGLEDGVSGEISDTELEQTDSCAEPLSEGRKKAKKLKRMKKELSPAGSISKNSPATLFEVPDTW
notes: poly(A)-specific ribonuclease (PARN), human, full length; cloned in pET-28a
B1: binds.
